Experimental findings from the RNAGym collection of RNA variant scans (doi:10.1073/pnas.2313332121) are described below.

B1: TPR t1 (parent)
chain: GACCAAUCUGCCCUCAGAGCUCGAGAACAUCUUCGGAUGCAGAGGAGGCAGGCUUCGGUGGCGCGAUAGCGCCAACGUCCUCAACCUCCAAUGCAUCCCACCACAUGAUGAUGCCUGAAGAGCCUUGGUUUUUUG

Variants of B1 are the subject of the data set. Nature of the data set: polymerase ribozyme fitness, log enrichment relative to wild type (log ratio); higher = more active; in vitro selection for triplet polymerase activity. A digest of the protocol: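 Libraries of mutants in each subunit of a heterodimeric triplet polymerase ribozyme were generated by PCR and transcribed. In triplicate, each went through one in vitro selection round: annealing with biotinylated primer, partner subunit and triplets; frozen incubation at −7 °C; gel excision of extended constructs; streptavidin-bead capture; RT-PCR. Fitness, taken from Illumina sequencing of input and output libraries, is the logarithm of a genotype's enrichment over wild-type enrichment, averaged across replicates with inverse-variance weights. The logarithm is base 2, and genotypes needed ≥10 input reads and ≥1 read per output to be kept.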
In the case of U32C G48A G52U A66U C114A, the “polymerase ribozyme fitness (log ratio)” value is -5.75. Regarding C20A U96G, the “polymerase ribozyme fitness (log ratio)” value was -3.33. For the variant A2U U9C C12A G51U C53A U55A G61U U78C G127U, the “polymerase ribozyme fitness (log ratio)” value is -6.49. For the variant C40G G69U U92A G93A C94G A119G, the “polymerase ribozyme fitness (log ratio)” value is -0.914. With C8A C12U A90U G117C, the “polymerase ribozyme fitness (log ratio)” value was -0.863. Take C3U C12A G61C A84C U130C U133G: the “polymerase ribozyme fitness (log ratio)” value is -2.37.

On to C15U C34G C49G G69U G120A, for which the “polymerase ribozyme fitness (log ratio)” value was -3.56. With A5U C72A the figure was -0.164; with A29G G63A C88A, -2.37. Next, A26U G36U C101U: -5.32.

Regarding G10A U33C A90G A118G, the “polymerase ribozyme fitness (log ratio)” value is -6.66. Next, C8U C13A G44U C72A C79U C85A: -3.38. With G36U C53A C89G the figure was -2.84; with G63U U134G, -1.64; with G44C U55A C70U C88G G117C, -6.75. Next, C40U U59A U116A: -4.02; C15A C20U C73A G93A: -3.83.

In the case of C8U C34U, the “polymerase ribozyme fitness (log ratio)” value was -3.66. On to A37G C64U, for which the “polymerase ribozyme fitness (log ratio)” value was -0.479. With C22A G48U G63A C94G G120A the figure was -5.73; with G36U C72U U96G G120C, -0.581.

As to C20A C104A, the “polymerase ribozyme fitness (log ratio)” value was -3.99. As for A2U C4A A43G G47C A68G G113A C124U, the “polymerase ribozyme fitness (log ratio)” value was -6.42. A50U A108G: the “polymerase ribozyme fitness (log ratio)” value is -3.01. With A6C C11A C85U U112G the figure was -2.47; with G71A U92A C94U C115G, -4.8; with A2U A37C, -3.02. With C11A G39A the figure was -2.5; with C11A A18U A26G G39U G42A G45A G60A U133A, -6.17; with A16U A50C, -2.04.

C11U C34A: the “polymerase ribozyme fitness (log ratio)” value was -2.54. As to C40A G69C, the “polymerase ribozyme fitness (log ratio)” value is -2.42. Take C3U G117A G120U: the “polymerase ribozyme fitness (log ratio)” value was -2.21. With G35A A108U G120C the figure was -5.76; with C40G A41U C70U C124G, -3.14.

For C56U C98U, the “polymerase ribozyme fitness (log ratio)” value was -0.841. On to C12U G39U U55A G71A C94G C102A G113U, for which the “polymerase ribozyme fitness (log ratio)” value is -6.81. With C11U C56A C123U the figure was 1.37; with A2U C20U, -3.71.

Consider A26G G71C C79G, for which the “polymerase ribozyme fitness (log ratio)” value was -3.86.

Turning to C12U A29U C56G U87G, the “polymerase ribozyme fitness (log ratio)” value was -2.63.

As for U9G A18C C40G A91C G93C C94A A105G, the “polymerase ribozyme fitness (log ratio)” value was -5.58. With U21A U59A C62A the figure was -3.07. Turning to C64A C124A, the “polymerase ribozyme fitness (log ratio)” value is -4.7. Next, G69A U131A: -2.38; G44C G61A A66G A75G: -2.01; C97A A111G: -5.96.

C34A A121U: the “polymerase ribozyme fitness (log ratio)” value was -0.134.

In the case of G61C U116C, the “polymerase ribozyme fitness (log ratio)” value is -2.77. With A27U G44U G69C C89U the figure was -6.05. With C3G C34G C76G A91C U109G the figure was -6.42; with U9G C80U C98U G110U, -3.68; with C11U U112C, 1.46. Regarding U78C U81C, the “polymerase ribozyme fitness (log ratio)” value is -0.434. C34A G63C A100C C104A: the “polymerase ribozyme fitness (log ratio)” value is -6.04.

Take C64U U133A: the “polymerase ribozyme fitness (log ratio)” value was -0.0271. Next, C56G C73A G93C: -4.53; G45U G51A C94G: -5.45. For the variant G36A C49U C64U C86G U92C, the “polymerase ribozyme fitness (log ratio)” value was -6.86. With G36U U96A C97A G127A the figure was -2.83; with C40A C72U U92A C115A, -1.91; with G63U G117U, -2.02. Next, G19A G61A C104A G107A A121G: -5.44; C8A C97A G120C: -3.2. Next, G19U A74G: -3.02; C8A C28U G48C G57U G127C: -3.86; U9G G60A U92G: -2.36. C8U C123A: the “polymerase ribozyme fitness (log ratio)” value was 0.745.

A111G G117C: the “polymerase ribozyme fitness (log ratio)” value is -4.52. For the variant C73U C76A A103U G120C, the “polymerase ribozyme fitness (log ratio)” value was -5.45. As for G25U C76A G113C, the “polymerase ribozyme fitness (log ratio)” value was -5.51. As to C49U G57U C79A, the “polymerase ribozyme fitness (log ratio)” value was -3.24. On to C64U A74C A90C C101G, for which the “polymerase ribozyme fitness (log ratio)” value was -4.26. With C8G C20A C72U G77A the figure was -1.87; with G63C C97G, -4.59; with G47C G58A U112A G117U, -3.44. Consider C73G U81A C85U C115U, for which the “polymerase ribozyme fitness (log ratio)” value is -5.48. With C4U C11G C49U G51A C80U C94G the figure was -2.25. With A18U G25C G57C C89G U92G C115U the figure was -5.83; with G60C A111U U116C, -5.57. With A41U C79U, the “polymerase ribozyme fitness (log ratio)” value is -0.893.

For C15U G51U G60A, the “polymerase ribozyme fitness (log ratio)” value was -5.07.

With G58A G63A C98U U112A, the “polymerase ribozyme fitness (log ratio)” value was -4.56.

Regarding C76U C89G C98U, the “polymerase ribozyme fitness (log ratio)” value is -4.45.
